# B1: native tissue plasminogen activator (protein)
# chain: SYQVICRDEKTQMIYQQHQSWLRPVLRSNRVEYCWCNSGRAQCHSVPVKSCSEPRCFNGGTCQQALYFSDFVCQCPEGFAGKCCEIDTRATCYEDQGISYRGTWSTAESGAECTNWNSSALAQKPYSGRRPDAIRLGLGNHNYCRNPDRDSKPWCYVFKAGKYSSEFCSTPACSEGNSDCYFGNGSAYRGTHSLTESGASCLPWNSMILIGKVYTAQNPSAQALGLGKHNYCRNPDGDAKPWCHVLKNRRLTWEYCDVPSCSTCGLRQYSQPQFRIKGGLFADIASHPWQAAIFAKHRRSPGERFLCGGILISSCWILSAAHCFQERFPPHHLTVILGRTYRVVPGEEEQKFEVEKYIVHKEFDDDTYDNDIALLQLKSDSSRCAQESSVVRTVCLPPADLQLPDWTECELSGYGKHEALSPFYSERLKEAHVRLYPSSRCTSQHLLNRTVTDNMLCAGDTRSGGPQANLHDACQGDSGGPLVCLNDGRMTLVGIISWGLGCGQKDVPGVYTKVTNYLDWIRDNMRP
# Target: thrombin, P00734
protein,measurement,value
B1,clotting time assay (fibrin mesh formation),fibrin mesh formation in presence or absence of native tPA up to high micro molar concentrations was essentially unaltered compared to buffer controls
